Data published in patent US20110008841A1.

Target: chimera L
Experiment: Bio-Plex titration on bead-captured chimera; cell bold and boxed = binding lost

EC50 cell marked as binding lost although the number is below wild type: 6 pM
B1: AMH26/AML26 (antibody, IgG2, V domains shown)
VH: QVQLVESGGGLVKPGGSLRLSCAASGFTFSDYYMSWIRQAPGKGLEWVSYISSSGSTIYYADSVKGRFTISRDNAKNSLYLQMNSLRAEDTAVYYCARDRTYYFGSGSYEGMDVWGQGTTVTVSS
VL: EILMTQSPATLSVSPGERATLSCRASQSVYSNLAWYQQKPGQAPRLLISGASTRATGIPARFSGSGSGTEFTLTISSLQSEDFAVYYCQQYYNWPWTFGQGTKVEIK
